Data on 17 molecules can be found in patent publication US20220298260A1 (MYTHIC THERAPEUTICS, published 2022).

Substitutions are numbered along the chain they refer to.

B1: MYT4527 (antibody, V domains shown)
VH: EVQLVESGGGVVQPGRSLRLSCSASGFTFSGYGLSWVRQAPGKGLEWVAMISSGGSYTYYADSVKGRFAISRDNAKNTLFLQMDSLRPEDTGVYFCARHGDDPAWFAYWGQGTPVTVSS
VL: DIQLTQSPSSLSASVGDRVTITCSVSSSISSNNHHWYQQKPGKAPKPWIYGTSNLASGVPSRFSGSGSGTDYTFTISSLQPEDIATYYCQQWSSYPYMYTFGQGTKVEIK
notes: IgG
B2: MYT4543 (antibody, V domains shown)
VH: B1 VH
VL: B1 VL with H34L, Y97H
notes: IgG
B3: MYT4529 (antibody, V domains shown)
VH: B1 VH
VL: B1 VL with H34L, G51H
notes: IgG
B4: MYT4538 (antibody, V domains shown)
VH: B1 VH
VL: B1 VL with H34L, W92H
notes: IgG
B5: MYT4542 (antibody, V domains shown)
VH: B1 VH
VL: B1 VL with H34L, P96H
notes: IgG
B6: MYT4541 (antibody, V domains shown)
VH: B1 VH
VL: B1 VL with H34L, Y95H
notes: IgG
B7: MYT4530 (antibody, V domains shown)
VH: B1 VH
VL: B1 VL with H34L, T52H
notes: IgG
B8: MYT4540 (antibody, V domains shown)
VH: B1 VH
VL: B1 VL with H34L, S94H
notes: IgG
B9: MYT4535 (antibody, V domains shown)
VH: B1 VH
VL: B1 VL with H34L, S57H
notes: IgG
B10: MYT4528 (antibody, V domains shown)
VH: B1 VH
VL: B1 VL with H34L, H35A
notes: IgG
B11: MYT4532 (antibody, V domains shown)
VH: B1 VH
VL: B1 VL with H34L, N54H
notes: IgG
B12: MYT4539 (antibody, V domains shown)
VH: B1 VH
VL: B1 VL with H34L, S93H
notes: IgG
B13: MYT4534 (antibody, V domains shown)
VH: B1 VH
VL: B1 VL with H34L, A56H
notes: IgG
B14: MYT4531 (antibody, V domains shown)
VH: B1 VH
VL: B1 VL with H34L, S53H
notes: IgG
B15: MYT4536 (antibody, V domains shown)
VH: B1 VH
VL: B1 VL with H34L, Q90H
notes: IgG
B16: MYT4533 (antibody, V domains shown)
VH: B1 VH
VL: B1 VL with H34L, L55H
notes: IgG
B17: MYT4537 (antibody, V domains shown)
VH: B1 VH
VL: B1 VL with H34L, Q91H
notes: IgG

For this experiment, the target named is T1, FOLR1 (R&D Systems, Cat #5646-FR) (human, UniProt P15328 25-233).
T1 construct: Bought soluble protein; also called Folate Receptor 1
T1 sequence (P15328 25-233 limits assumed): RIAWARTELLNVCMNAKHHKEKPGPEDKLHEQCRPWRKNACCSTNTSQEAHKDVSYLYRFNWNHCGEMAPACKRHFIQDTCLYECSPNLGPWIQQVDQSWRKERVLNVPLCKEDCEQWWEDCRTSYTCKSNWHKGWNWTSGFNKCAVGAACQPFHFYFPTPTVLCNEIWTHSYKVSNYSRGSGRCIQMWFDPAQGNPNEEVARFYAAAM
Nature of the experiment: BLI, IgG on anti-human Fc sensor, 50 nM FOLR1. On the technique in general: Biolayer interferometry detects binding as a change in optical thickness at a sensor tip.
In the case of B1, the binding result is “binds”.

Regarding B2, the binding result is “binds”.

With B3, the binding result is listed as “binds”.

B4: the binding result is “binds”.

For the molecule B5, the binding result was “binds”.

For B6, the binding result was “binds”.

As for B7, the binding result is listed as “binds”.

In the case of B8, the binding result is on record as “binds”.

For B9, the binding result is “binds”.

Take B10: the binding result is on record as “binds”.

With B11, the binding result is “binds”.

For B12, the binding result is on record as “binds”.

In the case of B13, the binding result was “binds”.

As to B14, the binding result is reported as “binds”.

Consider B15, for which the binding result was “binds”.

B16: the binding result was “binds”.

Consider B17, for which the binding result is on record as “binds”.
